Reference: patent publication US20230002480A1

Experiments:
Assay in all cases: cell-based or functional assay
[1] = biological target: HIV-1 Env of pseudovirus 1006_11_C3_1601 (clade B (T/F)) (HIV-1)
[2] = biological target: HIV-1 Env of pseudovirus 7030102001E5(Rev-) (clade C (T/F)) (HIV-1)
[3] = biological target: HIV-1 Env of pseudovirus CAP210.2.00.E8 (clade C) (HIV-1)
[4] = biological target: HIV-1 Env of pseudovirus CNE21 (clade BC) (HIV-1)
[5] = biological target: HIV-1 Env of pseudovirus CNE58 (clade BC) (HIV-1)
[6] = biological target: HIV-1 Env of pseudovirus Ce0393_C3 (clade C (T/F)) (HIV-1)
[7] = biological target: HIV-1 Env of pseudovirus Du422.1 (clade C) (HIV-1)
[8] = biological target: HIV-1 Env of pseudovirus HIV-0013095-2.11 (clade C) (HIV-1)
[9] = biological target: HIV-1 Env of pseudovirus Q769.d22 (clade A) (HIV-1)
[10] = biological target: HIV-1 Env of pseudovirus REJO4541.67 (clade B) (HIV-1)
[11] = biological target: HIV-1 Env of pseudovirus ZM233M.PB6 (clade C) (HIV-1)
[12] = biological target: HIV-1 Env of pseudovirus ZM53M.PB12 (clade C) (HIV-1)
[13] = biological target: HIV-1 Env pseudovirus 0815.v3.c3 (HIV-1)
[14] = biological target: HIV-1 Env pseudovirus 211-9 (HIV-1)
[15] = biological target: HIV-1 Env pseudovirus 263-8 (HIV-1)
[16] = biological target: HIV-1 Env pseudovirus 3301.v1.c24 (HIV-1)
[17] = biological target: HIV-1 Env pseudovirus 3365.v2.c2 (HIV-1)
[18] = biological target: HIV-1 Env pseudovirus 6480.v4.c25 (HIV-1)
[19] = biological target: HIV-1 Env pseudovirus 6540.v4.c1 (HIV-1)
[20] = biological target: HIV-1 Env pseudovirus 6545.v4.c1 (HIV-1)
[21] = biological target: HIV-1 Env pseudovirus BJOX028000.10.3 (HIV-1)
[22] = biological target: HIV-1 Env pseudovirus C2101.c01 (HIV-1)
[23] = biological target: HIV-1 Env pseudovirus R1166.c01 (HIV-1)
[24] = biological target: HIV-1 Env pseudovirus R2184.c04 (HIV-1)
[25] = biological target: HIV-1 Env pseudovirus X1632_S2_B10 (HIV-1)
[26] = biological target: HIV-1 Env pseudovirus X2131_C1_B5 (HIV-1)

## N49P7.2 (antibody)
[1]
  IC50: 0.085 mg/L
  IC80: 0.237 mg/L
  MPI: 100
[2]
  IC50: 0.313 mg/L
  IC80: 1.03 mg/L
  MPI: 100
[3]
  IC50: 3.94 mg/L
  IC80: 21.7 mg/L
  MPI: 95
[4]
  IC50: 48.3 mg/L
  IC80: > 50 mg/L
  MPI: 51
[5]
  IC50: 0.045 mg/L
  IC80: 0.129 mg/L
  MPI: 100
[6]
  IC50: 0.137 mg/L
  IC80: 0.368 mg/L
  MPI: 100
[7]
  IC50: > 50 mg/L
  IC80: > 50 mg/L
  MPI: 22
[8]
  IC50: 0.183 mg/L
  IC80: 0.931 mg/L
  MPI: 97
[9]
  IC50: 0.029 mg/L
  IC80: 0.14 mg/L
  MPI: 100
[10]
  IC50: 0.018 mg/L
  IC80: 0.08 mg/L
  MPI: 100
[11]
  IC50: 0.475 mg/L
  IC80: 2.14 mg/L
  MPI: 99
[12]
  IC50: 0.477 mg/L
  IC80: 1.73 mg/L
  MPI: 100

## N49P9 (antibody)
[13]
  IC50: 0.02 mg/L
  IC80: 0.057 mg/L
  MPI: 100
[14]
  IC50: 0.136 mg/L
  IC80: 0.485 mg/L
  MPI: 100
[15]
  IC50: 0.032 mg/L
  IC80: 0.161 mg/L
  MPI: 100
[16]
  IC50: 0.072 mg/L
  MPI: 100
[17]
  IC50: 0.059 mg/L
  IC80: 0.198 mg/L
  MPI: 100
[18]
  IC50: 0.017 mg/L
  IC80: 0.047 mg/L
  MPI: 100
[19]
  IC50: > 50 mg/L
  IC80: > 50 mg/L
  MPI: 49
[20]
  IC50: > 50 mg/L
  IC80: > 50 mg/L
  MPI: 20
[21]
  IC50: 0.031 mg/L
  IC80: 0.134 mg/L
  MPI: 100
[22]
  IC50: 0.051 mg/L
  IC80: 0.209 mg/L
  MPI: 100
[23]
  IC50: 0.064 mg/L
  IC80: 0.223 mg/L
  MPI: 100
[24]
  IC50: 0.015 mg/L
  IC80: 0.034 mg/L
  MPI: 100
[25]
  IC50: 46.7 mg/L
  IC80: > 50 mg/L
  MPI: 51
[26]
  IC50: 0.082 mg/L
  IC80: 0.274 mg/L
  MPI: 100

## N49P9.1 (antibody)
[13]
  IC50: 0.012 mg/L
  IC80: 0.041 mg/L
  MPI: 100
[14]
  IC50: 0.17 mg/L
  IC80: 0.579 mg/L
  MPI: 100
[15]
  IC50: 0.049 mg/L
  IC80: 0.17 mg/L
  MPI: 100
[16]
  IC50: 0.059 mg/L
  IC80: 0.178 mg/L
  MPI: 100
[17]
  IC50: 0.055 mg/L
  IC80: 0.725 mg/L
  MPI: 100
[18]
  IC50: 0.03 mg/L
  IC80: 0.082 mg/L
  MPI: 100
[19]
  IC50: > 50 mg/L
  IC80: > 50 mg/L
  MPI: 30
[20]
  IC50: > 50 mg/L
  IC80: > 50 mg/L
  MPI: 6
[21]
  IC50: 0.04 mg/L
  IC80: 0.2 mg/L
  MPI: 100
[22]
  IC50: 0.085 mg/L
  IC80: 0.227 mg/L
  MPI: 100
[23]
  IC50: 0.073 mg/L
  IC80: 0.232 mg/L
  MPI: 100
[24]
  IC50: 0.019 mg/L
  IC80: 0.057 mg/L
  MPI: 100
[25]
  IC50: > 50 mg/L
  IC80: > 50 mg/L
  MPI: 10
[26]
  IC50: 0.143 mg/L
  IC80: 0.476 mg/L
  MPI: 100

## N49P11 (antibody)
[1]
  IC50: 0.125 mg/L
  IC80: 0.487 mg/L
  MPI: 100
[2]
  IC50: 0.635 mg/L
  IC80: 2.29 mg/L
  MPI: 100
[3]
  IC50: 5.12 mg/L
  IC80: 19.4 mg/L
  MPI: 100
[4]
  IC50: 7.4 mg/L
  IC80: 21.9 mg/L
  MPI: 100
[5]
  IC50: 0.038 mg/L
  IC80: 0.135 mg/L
  MPI: 100
[6]
  IC50: 1.51 mg/L
  IC80: 9.71 mg/L
  MPI: 100
[7]
  IC50: 8.81 mg/L
  IC80: 21.2 mg/L
  MPI: 100
[8]
  IC50: 5.85 mg/L
  IC80: 17.8 mg/L
  MPI: 100
[9]
  IC50: 0.048 mg/L
  IC80: 0.308 mg/L
  MPI: 100
[10]
  IC50: 10.8 mg/L
  IC80: 27.1 mg/L
  MPI: 100
[11]
  IC50: 5.92 mg/L
  IC80: 18.5 mg/L
  MPI: 100
[12]
  IC50: 1.05 mg/L
  IC80: 6.53 mg/L
  MPI: 100

## N49P18.1 (antibody)
[1]
  IC50: 2.8 mg/L
  IC80: 9.66 mg/L
  MPI: 99
[2]
  IC50: 6.35 mg/L
  IC80: 17.7 mg/L
  MPI: 98
[3]
  IC50: > 50 mg/L
  IC80: > 50 mg/L
  MPI: 11
[4]
  IC50: 7.93 mg/L
  IC80: 29.2 mg/L
  MPI: 95
[5]
  IC50: 1.92 mg/L
  IC80: 5.26 mg/L
  MPI: 100
[6]
  IC50: 10.3 mg/L
  IC80: 24.8 mg/L
  MPI: 92
[7]
  IC50: 21.5 mg/L
  IC80: > 50 mg/L
  MPI: 75
[8]
  IC50: > 50 mg/L
  IC80: > 50 mg/L
  MPI: 48
[9]
  IC50: 4.92 mg/L
  IC80: 18.3 mg/L
  MPI: 97
[10]
  IC50: 4.08 mg/L
  IC80: 30.1 mg/L
  MPI: 89
[11]
  IC50: 38.4 mg/L
  IC80: > 50 mg/L
  MPI: 57
[12]
  IC50: 1.3 mg/L
  IC80: 4.51 mg/L
  MPI: 99
